In patent US20060003399A1, “High throughput actin polymerization assay” (Cytokinetics, Inc., priority 2004, published 2006):
Entries after “also recorded” stand apart in the source; their conditions may differ.

Tests used:
full length human WASP = biological target: T1, full length human WASP (Homo sapiens, UniProt P42768); test: Pyrene-actin polymerization assay: activation of full length WASP by upstream regulators; format: biochemical; conditions: for activation of FL-WASP (in words): Arp2/3 4.0 nM, actin 3.5 μM; for acceleration of actin polymerization by the activator: FL-WASP; for Barbed ends % of max.** (WASP): after subtracting baseline (WASP without activators); for Barbed ends, nM* (WASP): total concentration of Arp2/3 complex in the assay is 4.2 nM; for EC50: activation of WASP
T1 construct: Full length human WASP and N-WASP were TAP-tagged; Myc (N); made in house; host or cells: human 293 cells (Freestyle 293-F), transient transfection
T1 sequence (P42768 1-502): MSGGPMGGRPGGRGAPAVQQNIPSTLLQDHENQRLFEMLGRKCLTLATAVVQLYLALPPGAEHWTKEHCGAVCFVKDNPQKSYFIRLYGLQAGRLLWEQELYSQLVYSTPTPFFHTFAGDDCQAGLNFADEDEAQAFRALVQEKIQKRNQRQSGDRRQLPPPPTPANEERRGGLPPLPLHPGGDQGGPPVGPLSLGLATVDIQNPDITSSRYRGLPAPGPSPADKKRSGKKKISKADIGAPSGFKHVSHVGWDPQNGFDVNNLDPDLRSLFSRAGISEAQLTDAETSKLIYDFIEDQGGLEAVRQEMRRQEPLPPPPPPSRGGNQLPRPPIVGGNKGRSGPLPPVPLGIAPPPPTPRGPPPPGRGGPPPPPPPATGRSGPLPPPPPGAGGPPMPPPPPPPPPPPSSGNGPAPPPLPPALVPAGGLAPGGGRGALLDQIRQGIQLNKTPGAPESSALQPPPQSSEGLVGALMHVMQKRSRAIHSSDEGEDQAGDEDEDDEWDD
Protocol: (§1) Samples containing candidate agents (individually or as mixtures) are placed into wells on a multi-well plate. Mix 1 is added to each of the wells and mixed with the candidate agent. A sample of Mix 2 is then introduced into each well and the resulting mixture thoroughly mixed. Typically, Mix 1 and Mix 2 are mixed in 1:1 ratio (e.g., 50 μl each of Mix 1 and Mix 2).
(§2) Actin polymerization is measured as a function of time by exciting pyrene at 365 nm and by detecting an increase in fluorescence emission at 407 nm, or by exciting acrylodan at 405 nm and by detecting an increase in fluorescence emission at 460 nm. The change in fluorescence over time is utilized to determine a fluorescence parameter (e.g., maximal velocity, time to half maximal fluorescence intensity, or area under the curve of a plot of fluorescence versus time; see e.g., FIGS. 5A-5F).
(§3) Full length human WASP and N-WASP were TAP-tagged (Rigaut, et al. (1999) Nat. Biotechnology 17:1030, which is incorporated herein by reference in its entirety for all purposes) at the C-terminus (see, also Examples 2 and 3). The recombinant WASP and N-WASP were expressed in human 293 cells and then purified using a TAP-tag protocol as described in Example 6.
Arp2/3 was purified as described in Example 1. […]
The effect of PIP2 on the ability of upstream regulators to regulate FL-WASP was evaluated in a fifth set of experiments. The results are depicted in graphical format in FIG. 11.

full length human N-WASP = biological target: T2, full length human N-WASP (Homo sapiens, UniProt O00401); test: Pyrene-actin polymerization assay: activation of full length N-WASP by upstream regulators; format: biochemical; conditions: for activation of FL-N-WASP (in words): Arp2/3 4.0 nM, actin 3.5 μM; for Barbed ends % of max.** (N-WASP): after subtracting baseline (WASP without activators); for Barbed ends, nM* (N-WASP): total concentration of Arp2/3 complex in the assay is 4.2 nM; for EC50: activation of N-WASP
T2 construct: Full length human WASP and N-WASP were TAP-tagged; Myc (N); made in house; host or cells: human 293 cells (Freestyle 293-F), transient transfection; insert amplified from HeLa total RNA
Protocol: as §1, §2, §3
(§4) Arp2/3 was purified as described in Example 1.
Arp2/3 and actin concentrations were as described for the third experiment.
Another set of experiments similar to the fifth set were conducted using FL-N-WASP.

Arp2/3 = test: Activities of WASP/N-WASP proteins (Table 4); format: biochemical
Source text: The term “variant” or “analogue” generally refers to proteins that are functional equivalents to a native sequence that have similar amino acid sequences and retain, to some extent, one of the activities of the corresponding native protein. Variants/analogues include fragments that retain one or more activities of the corresponding native protein. Examples of WASP and N-WASP activity include, but are not limited to, capacity to: 1) bind Arp2/3 and actin; 2) activate the actin nucleation activity of Arp2/3 (descriptions of assays to detect nucleation activity are provided below); 3) bind an upstream regulator; 4) be regulated by one or more upstream regulators, thereby rendering the WASP or N-WASP protein able to activate the nucleation activity of Arp2/3; and 5) bind downstream regulators initiating signal transduction cascades. Some of the WASP and N-WASP proteins that are provided are able to recapitulate the full activity of WASP or N-WASP, which means that these proteins have all five of the activities just listed. […]
A third class of NPF proteins that can be utilized in some assays include WASP, N-WASP and SCAR proteins that include the WH1 domain but in which the PolyPro region is (e.g., deleted). A fourth class of NPF proteins that can be utilized in some assays are WASP, N-WASP and SCAR deletion mutants in which the PolyPro region is maintained but an N-terminal region (e.g., WH1 domain) is at least partially removed. Some proteins in this class are ones that include the B, CRIB/GBD (WASP and N-WASP), PolyPro and VCA domains, but in which some or all of the WH1 has been removed. One specific example is 98N-WASP, which includes amino acids 98-501 of SEQ ID NO:4. Another specific example is the 105WASP protein, which includes amino acids 105-501 of SEQ ID NO:2 (see FIG. 4B).
As indicated in this table, specific examples of fusion proteins that can be utilized include those that include a segment that encodes full-length WASP or N-WASP, including: Myc-WASP-TAP (SEQ ID NO:14); and Myc-N-WASP-TAP (SEQ ID NO: 16). Examples of fusion proteins that include a WASP or N-WASP deletion mutant domain include: GST-105WASP (SEQ ID NO:18); Myc-105WASP-TAP (SEQ ID NO:20); GST-tev-98N-WASP (SEQ ID NO:22); and Myc-98N-WASP-TAP (SEQ ID NO:24). The TAP tag in these particular fusion proteins has the general structure CBP-tev-ProtA (SEQ ID NO:36). Fusion proteins such as those listed in Table 4 can in some instances be utilized directly, or after one or both of the C- and N-terminal tags are removed. For example, the fusion proteins listed in Table 4 as having a TAP tag can be used once the TAP tag has been cleaved off and/or after the C-terminal tag has been removed.

Arp2/3 complex = biological target: T3, Arp2/3 complex; test: Actin polymerization assay comparing FL-WASP/N-WASP and truncated forms of WASP; format: biochemical, human
T3 construct: from tissue
Protocol: 1. A cellular extract containing Arp2/3 complex was prepared from an Arp2/3 source such as human platelets (see, e.g., U.S. Provisional Application No. 60/578,969, filed Jun. 10, 2004; Welch and Mitchison (Meth. Enzymology 298:52-61,1988); and Higgs, H. N. et al. (Biochemistry 38:15212-15222, 1999), all of which are incorporated herein by reference in their entirety for all purposes).
as §1, §2, §4
In a second set of experiments, the ability of various truncated forms of WASP were compared to the activity of the full-length protein. […] FL-WASP, 105 WASP and the VCA (see Example 2) domain were tested. The results of these trials were plotted to obtain EC50 values. The results are provided in FIG. 8 and in the chart below.

[1] = Solubility of purified full-length WASP / N-WASP; format: physicochemical; conditions: purified TAP-tag protein from 293 cells

T2 sequence (O00401 whole entry Y76H/A201G/F223S/S242L/D248E/S252L/N296S/A333E): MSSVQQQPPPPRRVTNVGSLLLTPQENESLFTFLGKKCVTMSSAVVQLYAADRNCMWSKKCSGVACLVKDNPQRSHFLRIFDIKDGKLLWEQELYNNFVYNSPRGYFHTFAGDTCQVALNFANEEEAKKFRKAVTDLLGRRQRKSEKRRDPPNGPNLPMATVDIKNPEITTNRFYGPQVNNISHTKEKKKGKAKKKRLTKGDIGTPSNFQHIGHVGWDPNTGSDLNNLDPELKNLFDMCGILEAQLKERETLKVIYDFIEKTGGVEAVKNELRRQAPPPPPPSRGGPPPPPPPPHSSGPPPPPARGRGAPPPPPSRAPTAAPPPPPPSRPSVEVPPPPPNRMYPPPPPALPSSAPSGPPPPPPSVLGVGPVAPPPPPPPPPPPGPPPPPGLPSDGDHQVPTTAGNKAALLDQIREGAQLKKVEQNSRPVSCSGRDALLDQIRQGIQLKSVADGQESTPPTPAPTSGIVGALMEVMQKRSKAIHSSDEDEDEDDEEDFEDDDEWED

RhoC: GTPase, GST-tev-RhoC (SEQ ID NO:28)
activation of FL-WASP (in words) (full length human WASP; FIG. 9): could not activate | activation of FL-N-WASP (in words) (full length human N-WASP; FIG. 10): could not activate

Myc-N-WASP-TAP: fusion protein of full-length N-WASP (SEQ ID NO:16)
Activate Arp2/3? (Arp2/3): Yes | Regulated By Which Upstream Regulators? (Arp2/3): Cdc42, PIP2, Nck and Rac1

Myc-WASP-TAP: fusion protein of full-length WASP (SEQ ID NO:14)
Activate Arp2/3? (Arp2/3): Yes | Regulated By Which Upstream Regulators? (Arp2/3): Cdc42, PIP2, Nck and Rac1

phosphatidylinositol-4,5-bisphosphate [PIP2, reference compound]
effect of PIP2 on FL-WASP (full length human WASP; in the absence of small GTPases or Nck, FIG. 11): no effect; also recorded: minimal, if any, effect | effect of PIP2 on WASP stimulated actin polymerization (full length human WASP; in the presence of small GTPases or Nck, FIG. 11): strong inhibitory effect | effect of PIP2 on Nck stimulated activation of N-WASP (full length human N-WASP; Nck present, FIG. 12): inhibited; also recorded: inhibitory effect | effect of PIP2 on N-WASP activation by Rac1 or Cdc42 (full length human N-WASP; small GTPases present, FIG. 12): marked synergistic effect; also recorded: synergistically; also recorded: marked synergestic effect

Cdc42: Rho-family GTPase upstream regulator, GST-tagged (SEQ ID NO:26)
activation of FL-WASP (in words) (full length human WASP; FIG. 9): fully activates FL-WASP; also recorded: can fully activate FL-WASP | relative potency as WASP activator (in words) (full length human WASP; FIG. 9): more effective on WASP-stimulated actin nucleation by Arp2/3 complex than on N-WASP-stimulated actin nucleation | acceleration of actin polymerization by the activator (full length human WASP; FIG. 7): 13 fold | acceleration of actin polymerization by the activator (full length human WASP; FIG. 7 legend): 13 times | Barbed ends % of max.** (WASP) (full length human WASP): 87 % of max. | Barbed ends, nM* (WASP) (full length human WASP): 3.8 nM | EC50 (full length human WASP): 16 nM | acceleration of actin polymerization by the activator (full length human N-WASP; FL-N-WASP, FIG. 7 legend): 13 times | acceleration of actin polymerization by the activator (full length human N-WASP; N-WASP, FIG. 7): 13 fold | Barbed ends % of max.** (N-WASP) (full length human N-WASP; N-WASP): 9 % of max. | Barbed ends, nM* (N-WASP) (full length human N-WASP; N-WASP): 1.3 nM | EC50 (full length human N-WASP): 287 nM

Nck2: upstream regulator, GST-tagged (SEQ ID NO:46)
relative potency as WASP activator (in words) (full length human WASP; FIG. 9): most powerful activators | dose dependence of WASP activation / barbed end concentration (in words) (full length human WASP; FIG. 9, inhibition at higher concentrations): bell shaped dependence; also recorded: inhibited | Barbed ends % of max.** (WASP) (full length human WASP): 50 % of max. | Barbed ends, nM* (WASP) (full length human WASP): 2.6 nM | EC50 (full length human WASP): 12 nM | activation of FL-N-WASP (in words) (full length human N-WASP; FIG. 10): can stimulate production of maximal concentration of barbed ends | relative potency as N-WASP activator (in words) (full length human N-WASP; FIG. 10, Rac1 vs Cdc42 in the absence of PIP2 vesicles): significantly better activator of N-WASP than WASP; also recorded: most powerful activators | dose dependence of N-WASP activation (in words) (full length human N-WASP; FIG. 10, inhibition at higher concentrations): bell shaped dose dependence curve; also recorded: inhibited | Barbed ends % of max.** (N-WASP) (full length human N-WASP; N-WASP): 78 % of max. | Barbed ends, nM* (N-WASP) (full length human N-WASP; N-WASP): 3.5 nM | EC50 (full length human N-WASP): 7 nM

N-WASP VCA Domain: VCA domain of N-WASP (SEQ ID NO:8)
Activate Arp2/3? (Arp2/3): Yes | Regulated By Which Upstream Regulators? (Arp2/3): None

FL-WASP: full length human WASP (SEQ ID NO:2), nucleation promoting factor
potency as Arp2/3 complex activator compared with truncated derivatives (in words) (Arp2/3 complex): more potent Arp2/3 complex activator than certain truncated derivatives | concentration that stimulated production of maximal concentration of barbed ends (Arp2/3 complex; 500 nM Cdc42, 2.5 nm Arp2/3 complex, 3.5 μM actin): 3 nM | activity of FL-WASP relative to 105 WASP (Arp2/3 complex; 500 nM Cdc42, 2.5 nm Arp2/3 complex, 3.5 μM actin, FIG. 8): approximately 20 times | stimulation of actin polymerization by the protein alone (in words) (Arp2/3 complex; without activators, FIG. 7): weakly stimulate actin polymerization | Activate Arp2/3? (Arp2/3): Yes | Regulated By Which Upstream Regulators? (Arp2/3): Cdc42, PIP2, Nck and Rac1 | solubility (in words) [1]: completely soluble

RhoA: GTPase, GST-tev-RhoA (SEQ ID NO:30)
activation of FL-WASP (in words) (full length human WASP; FIG. 9): could not activate | activation of FL-N-WASP (in words) (full length human N-WASP; FIG. 10): could not activate
